Reference: a protein production outcome set (Wang et al. 2014)

Experiment: label from the status in PepcDB records

Row | Sequence | protein production
1 | MIVDFETHFITEACIDYLTQRQEVPKLVPDLNGAYTMCFTPDVSLFHTSALMEELLSLNEQRLAIMDQAGVTIQVLSLTTINGIDSCPGDENKSTALAREVNDQLYSAIQRHPERFKGFASISPYDVKEGVKELERAISQLGFVGWLTHSNFGQDNYLDDKTYWPLLEAAEGLNIPIYLHPNVPIMREFGKYGFALGGSALGFEFDTALCLMRMILGGVFDAFPKLKIMLGHLGETMPFLMERLDHLYRIPDLKAYRPSIQRIPSEVLRQNVYITTSGRFFVPALRYVLEVMGEDRVLFASDYPMESLLDATRFIQDSDLSNQTKQKIFSINAKNLNLILEHHHHHH | failed
2 | MNMDFNLFMNDIVRQARQEITAAGYTELKTAEEVDEALTKKGTTLVMVNSVCGCAGGIARPAAYHSVHYDKRPDQLVTVFAGQDKEATARARDYFEGYPPSSPSFAILKDGKIMKMVERHEIEGHEPMAVVAKLQEAFEEYCEEV | not failed
3 | MSADSNSTDADPTAHWSFETKQIHAGQHPDPTTNARALPIYATTSYTFDDTAHAAALFGLEIPGNIYTRIGNPTTDVVEQRIAALEGGVAALFLSSGQAAETFAILNLAGAGDHIVSSPRLYGGTYNLFHYSLAKLGIEVSFVDDPDDLDTWQAAVRPNTKAFFAETISNPQIDLLDTPAVSEVAHRNGVPLIVDNTIATPYLIQPLAQGADIVVHSATKYLGGHGAAIAGVIVDGGNFDWTQGRFPGFTTPDPSYHGVVFAELGPPAFALKARVQLLRDYGSAASPFNAFLVAQGLETLSLRIERHVANAQRVAEFLAARDDVLSVNYAGLPSSPWHERAKRLAPKGTGAVLSFELAGGIEAGKAFVNALKLHSHVANIGDVRSLVIHPASTTHAQLSPAEQLATGVSPGLVRLAVGIEGIDDILADLELGFAAARRFSADPQSVAAF | not failed
4 | MVSSLSVYYRKLAYHVIESDGFLWVGFKPGMVHFIAKEVWNIRPLTRTDVERYYEEFTVLTQGKGSLYFRIVAHGGFLKEALAYELHGLTVSDDNYLRSLNSGRHVELYPHNEKAYRAIIKGFEQHRIGTVVQATGTGKSYLLARYISDHATERICVFAPNVTILEEIKKAVGFTSPYICYRTFQSLIYYRKNDKQLKADHILIDEFHHFGAEIWGAALQEVIESNPQAYILGTSATPIRPEGMIDTVDLYFEGNLFYELTLPQAWYYRILPVPILVQSAYGLDGELNRLQKRLDRSGCSIRRKEQVQKKLDVARVDFKGALGAPEVIRKFLPKDVCKLLVFCRDLTDLKQMVPEVCGWLTQAGRVIIPFEIHHTQSERINNQILKAFQKESGKLHVLFSVNMLIEGLHVEGIDAVLFLRRTESYIVTLQQLGRCLDAGSGKQPVVLDFVNNLSGKSVYDMMALHMERLACQPSPKGFEGVTSFLTTGFLSDIRLRIEEILTELEPWQIMYERLIEFRKKENDWPSVTEGKLGLWCNTQRMAYKRGRLSEERYKLLESVGFEWNLLDSNWMKEFQSLKVFFATQGRWPKREDGALATWCYTQRERRKKGRLSKERIRVLDEIGFVWSQDLNGEWMKNYEALKIFLDKQQRFPKSAEGYLGEWCSTQRKMRKQGKLSPDRQTLLDRIGFVWSVEQVWRSHLEQLHQFHVQNGRWPGCREGALGRWCTVQRRNYRRGSLSDQKIVQLEQIGFIPLKGDE | failed
5 | MGDEALVVDPLRFIDVYEQVAQQEGVTITHIVDSHLHADHLSGGKALAERTGAAYYLMKSEGAVFDFEPLEQHETIDFENVHLEVLAVKTPGHTPGSVSFFVNGKWLFSGDTIFVGGLGRPDLGGKVAEWAEDLYHTVYEKVAAMADDVIVLPAHYANLDEEINAEGYVGDTLGRIRARNEMMQNKAKDEFIDLVIQGLEHHHHHH | failed
6 | MTASTALTVAIWIGVMLIGGIGSVLRFLVDRSVARRLARTFPYGTLTVNITGAALLGFLAGLALPKDAALLAGTGFVGAYTTFSTWMLETQRLGEDRQMVSALANIVVSVVLGLAAALLGQWIAQI | failed
7 | MTSTTTSQQELFRFLEDRFACAQACTECARACALRASLVDPDGTENQELVRRRGIMCAEVCDATCRVLSEQNQVDEAAIRAQLEWCRQVCLESAHVFDDHPGAEESAQACRDCARACGEFLATLR | failed
8 | MKRCDRMNYREEYEKKLISPEEAAGLVESGMHIELGGAANTALIIDKYLAKRKDELENVKVGTFIDLAHYEFLKADPNGEVFEWSSGFLYRPVRKTSKELGPCVFRPNLYHDVPKIVREFSKDYDPIDIAYLVTTPMDKHGYFNFGLTCSHMKALAEVAEKVVVVVKENMPWVNGGYDECIHISEVDYIVEDNEMPVPFIPFSIPPTKEDEMIAENILNAETKDGRKLIQDGSTLQVGIGGLPDTVVKMLKEGGYKNLGVHTEMMGDGTLELIEEGVVTNDQKRLDRGKSVFTFALGSLKLYEYLDRNPEVATYPVDYTNDPFIIAQQPKMFSLNQAAEADLMGQINSEQMGLISPTGKLYQVSGTGGQLDFVMGCLFSRDRQGFSILAMYSTHNGTSRIKPILPPGAAVTVPRSMVQVVATEWGVAYLKGLTVKERAIAMIHLAHPDHREWLEKEAEKLGLLPPNYTIPAGKPDYLLYKRDLEHHHHHH | not failed
9 | MEKFLTTTYKELNSSMYKFSKGLTLVLFSLALSACSSSPEDNDIAAKTSPDELYSQARTSMELGNYSKAVRSLEALDSRFPFGPHKTQVQLDLIYAYYKMDDVASGIANIDRFIRLNPTHPNIDYVYYMRGLVNMQADSYLFHDMLNIDRTDRDPKNAQDAFKDFDRLIKTYPNSKYAADAQKRMLSLKNRLAKYSIQVAEYYIKMNAWSAAAVRAQSVLETYPGTPSTERALEIMAEAYGELGQNQLKQNVLMVMQANFPNNEILSN | failed
10 | MEIVQEGIAKIIVPEIPKTVSSDMPVFYNPRMRVNRDLAVLGLEYLCKKLGRPVKVADPLSASGIRAIRFLLETSCVEKAYANDISSKAIEIMKENFKLNNIPEDRYEIHGMEANFFLRKEWGFGFDYVDLDPFGTPVPFIESVALSMKRGGILSLTATDTAPLSGTYPKTCMRRYMARPLRNEFKHEVGIRILIKKVIELAAQYDIAMIPIFAYSHLHYFKLFFVKERGVEKVDKLIEQFGYIQYCFNCMNREVVTDLYKFKEKCPHCGSKFHIGGPLWIGKLWDEEFTNFLYEEAQKREEIEKETKRILKLIKEESQLQTVGFYVLSKLAEKVKLPAQPPIRIAVKFFNGVRTHFVGDGFRTNLSFEEVMKKMEELKEKQKEFLEKKKQG | not failed
11 | RLKVEDALSYLDQVKLQFGSQPQVYNDFLDIMKEFKSQSIDTPGVISRVSQLFKGHPDLIMGFNTFLPPGYKIEVQTNDMVNVTTPGQVHQIPTHGI | failed
12 | MDVIKISPRGYCYGVVDAMVIAKNASLDKSLPRPIYILGMIVHNKHVTDAFEEEGILTLDGSNRLDILKQVDKGTVIFTAHGVSPEVRRIAEEKGLVAIDATCPDVTKTHNLILEMKEKGYHVIYIGKKGHPEPEGAVGVAPEIVHLVETEEDVKNLDIQSEKLIVTNQTTMSQWDVHDIMELVKEKYPHVEYHQEICLATQVRQEAVSEQAKKADLTIVVGDPKSNNSNRLAQVSEEIAGTKAYRIGDLSELKLEWLKGVNTVAVTAGASTPTPITKEVIRFLEQFDHE | failed
13 | MKFAFVFPGQGSQSVGMLNAFADVAVVRETLDEASDALGQDIGKLIADGPADELNLTTNTQPVMLTAAYACYRAWQQAGGAQPSIVAGHSLGEYTALVAAGAIAFRDALPLVRFRAQAMQTAVPVGVGGMAAILGLDDDTVRAVCAEASATGVVEAVNFNAPAQVVIAGTKAGIEKACEIAKEKGAKRALPLPVSAPFHSSLLKPASDKLREYLAGVDVKAPKISVVNNIDVAVVSDPAAIKDALVRQAAGPVRWVECVQHIAREGVTHVIECGPGKVLAGLTKRIDGNLVGASVFDPASLDEALKLAAA | not failed
14 | MSIESDMIHVEVVYALPHEQRVFNLVVNNHATVEEIIRQSGVLELYPEIDLAKNKVGVFSRNVKLDATVRDKDRIEIYRPLLADPKEIRRKRAEQAKAAGNADPVTGGKPNALRK | failed
15 | MIMRQLAHFKFFDTLSKKMVAGFIILILIGTVLLSLPWATPANVHTSLIDVLFTSASATCITGLTVVNTAAHWTTFGQLVILVLSEVGALGYMTFAVLLFNIMRRQIGLSTQLMVKASLNLERLSDTKSVMKYVVGLSLLFQLGGLGLLAIDFVPRFGWRHGLYVSLYHAVMSFCNAGFDVFGDSLQGFRNDPYVLTVTMILIIAGGLGFLVWRDVLLYHTRKRLTLNSKLTLLTTFSLFVIGFVLLLITERDLELLPTGMSWVNRTINTLFLSVTPRTAGLITMPTQGLQAGSLLVIMILMFVGGTPGSTAGGIKTTTFGVLMFQSIAQLRGRRDVEFSHRRFSQENINRALMLIFLASIVLTVATLILTQTEKIPKGFGLEYVLFEVLSAFGTVGLSLGLTPNLTLIGKIVIMMLMFIGRVGIFTSLYALSRRQARVNLIRYPAENILIG | failed
16 | MNKNTWIIGFTLFAMFFGAGNLIFPTQLGLESGHFFWPAILAFALTGIGLPLLGVVVGALDKHGYIGSFNKISPRFSLIFLIIIYLTIGPLFAIPRTASTSFEMSVTPIAQNSGNLALFIFTVIYFLIVLYLCLNPNKMIDRIGSLLTPLLLITIVAMIIKGFVDFSGHSSNYGMTNAYHSNLSGFSQGFTQGYLTMDAIASIAFSMIVVNAIKTTGIQHADKIFKQTIIAGLIAAIALVFIYISLGYIGNHINIPSDTLKELKAKDQNIGTYLLTTMATKGFGTFGKYLLGIIVSLACLTTACGLIVSVSEYFHRILPKIPYKVFVIFFILVSFILANQGLNSVIKMSVPVLSVIYPVAITVILLILIARFIPTKRIAQQIPLIIVAIESILSLITTQGWIRISFIDDLPLKEYSLEWFPIAVVATLVGYMISYFVKQSNIVYQKE | failed
17 | STGKKPKHHVLSHDIIPASKPIAEKLQIQPESPVVELKRILYNDDQPLTFEVTHYPLDLFPGIDTFIADGVSMHDILKQQYKVVPTHNTKLLNVVYAQQEESKYLDCDIGDALFEIDKTAFTSNDQPIYCSLFLMHTNRVTFTINSPYT | not failed
18 | MMYVTVMPVFLAGVANRFFCKSDILAWTYQPIDGGFTMSDGKRILGANKTWKGFWGMITLTTFCQVIWGFILGIIPHLLTFSLVKSYHNDIFFNLFIGFLMGSAYVLCELPNSFIKRRFNVSPGQLASGNARWVFLFADQIVPFLGSIAVVAIFSPMTFSYYVGYVLLAAITLFAINSLILFVEMKRK | failed
19 | MTPSISLITSYSLLPAILMLIGGGIASLYRPGGSITSATQHFAAGVVFAAVAKELLPKIGAYHDPLALIIGFSVGILAMLFLKWLANRLEDLEQEKTGLSWGLLTAVGIDLLIDGILIGVAFLAGERGGILIAIALAIEIFFLGLSTTATLGARQVNVPIRLLTSVILAILIPVGAALGASLLIHLPLSITNGILSFGVAALLYLVTEELLLEAHGVRETPYITLCFFIGFLLILLLEGLAA | failed
20 | MSRDRLYTWAGLWRSPSSSWEALRLEDDQAESQLRAPDERSGLPYQLDYRLRWDADWHLREAVFHVESETGVRKLHLLADGRGHWQDGDGEALPAFDGCLDIDIWPSPFTNTFPIRRLGLADGQRAEIRALYIEAPALEPRSMRQAYTRLDASHYLYENLEGSAFKAVLLVDEQGLVIDYPGLFQRL | not failed
21 | MESVSCSAAAVRTGDMESQRDLSLVPERLQRREQERQLEVERRKQKRQNQEVEKENSHFFVATFARERAAVEELLERAESVERLEEAASRLQGLQKLINDSVFFLAAYDLRQGQEALARLQAALAERRRGLQPKKRFAFKTRGKDAASSTKVDAAPGIPPAVESIQDSPLPKKAEGDLGPSWVCGFSNLESQVLEKRASELHQRDVLLTELSNCTVRLYGNPNTLRLTKAHSCKLLCGPVSTSVFLEDCSDCVLAVACQQLRIHSTKDTRIFLQVTSRAIVEDCSGIQFAPYTWSYPEIDKDFESSGLDRSKNNWNDVDDFNWLARDMASPNWSILPEEERNIQWD | not failed
22 | MGHHHHHHSHMAGPSNVPAFLTKLWTLVSDPDTDALICWSPSGNSFHVFDQGQFAKEVLPKYFKHNNMASFVRQLNMYGFRKVVHIEQGGLVKPERDDTEFQHPCFLRGQEQLLENIKRKVTSVS | not failed
